In the Human Domainome abundance scans (Beltran et al. 2025):
± gives the uncertainty stated by the source.

B1: Chromodomain-helicase-DNA-binding protein 5, residues 411 to 463; numbered along this chain, Q8TDI0 (parent)
chain: EEDDHMEFCRVCKDGGELLCCDACPSSYHLHCLNPPLPEIPNGEWLCPRCTCP

Variants of: B1
Experiment: abundance fitness (aPCA) (normalised: wild type 0, dead -1); higher = more abundant; growth selection in yeast, the domain comes from the species named
Conditions: Homo sapiens

| Variant | abundance fitness |
| --- | --- |
| A23M | -0.324 ± 0.13 |
| A23Y | 0.193 ± 0.074 |
| A23Q | 0.305 ± 0.13 |
| A23R | -0.022 ± 0.088 |
| A23F | -0.708 ± 0.32 |
| A23K | 0.092 ± 0.093 |
| A23G | -0.014 ± 0.088 |
| C24D | -0.703 ± 0.16 |
| C24L | -1.15 ± 0.15 |
| C24R | -0.392 ± 0.085 |
| C24Q | -1.11 ± 0.28 |
| E44I | -0.156 ± 0.1 |
| E44C | -0.026 ± 0.068 |
| E44N | -0.083 ± 0.09 |
| E44Q | 0.041 ± 0.053 |
| E44V | -0.105 ± 0.04 |
| L18G | -0.655 ± 0.13 |
| L18F | -0.969 ± 0.24 |
| L18V | 0.065 ± 0.082 |
| L18M | -0.019 ± 0.1 |
| L18Q | -0.415 ± 0.15 |
| R10Q | -0.106 ± 0.11 |
| R10H | -0.028 ± 0.12 |
| R10S | -0.089 ± 0.055 |

| Variant | abundance fitness |
| --- | --- |
| R10T | 0.012 ± 0.086 |
| R10G | -0.035 ± 0.053 |
| R10C | -0.296 ± 0.087 |
| R10V | -0.25 ± 0.065 |
| H5G | -0.246 ± 0.043 |
| H5M | -0.223 ± 0.043 |
| H5Q | -0.028 ± 0.049 |
| H5E | -0.476 ± 0.069 |
| E1K | 0.044 ± 0.13 |
| N34K | 0.046 ± 0.1 |
| N34C | -0.074 ± 0.1 |
| N34T | -0.189 ± 0.099 |
| N34E | -0.036 ± 0.069 |
| H31S | -0.075 ± 0.08 |
| H31Q | -0.436 ± 0.15 |
| H31W | -0.361 ± 0.11 |
| H31G | 0.089 ± 0.079 |
| E7I | -0.123 ± 0.074 |
| E7Y | -0.527 ± 0.17 |
| E7Q | -0.332 ± 0.12 |
| E7L | -0.131 ± 0.065 |
| D4P | 0.024 ± 0.041 |
| G16M | -0.301 ± 0.13 |
| G16S | -0.023 ± 0.11 |

| Variant | abundance fitness |
| --- | --- |
| G16I | -0.145 ± 0.32 |
| G16E | 0.411 ± 0.12 |
| P25A | 0.094 ± 0.07 |
| P25C | 0.087 ± 0.061 |
| P25W | -0.067 ± 0.072 |
| P25G | 0.085 ± 0.067 |
| F8G | 0.033 ± 0.044 |
| F8A | -0.017 ± 0.066 |
| F8N | 0.024 ± 0.11 |
| F8T | 0.023 ± 0.077 |
| F8Y | 0.033 ± 0.088 |
| F8L | 0.015 ± 0.065 |
| F8S | -0.099 ± 0.073 |
| F8P | -0.261 ± 0.081 |
| E2K | -0.157 ± 0.14 |
| E2M | -0.669 ± 0.4 |
| E2C | -0.398 ± 0.14 |
| E2I | 0.392 ± 0.13 |
| E2T | 0.011 ± 0.12 |
| E2R | -0.042 ± 0.085 |
| E2D | -0.565 ± 0.19 |
| C20Y | 0.125 ± 0.092 |
| C20S | -0.008 ± 0.055 |
| D22P | 0.008 ± 0.055 |

| Variant | abundance fitness |
| --- | --- |
| D22V | -0.085 ± 0.046 |
| D22T | 0.038 ± 0.053 |
| D22R | 0.071 ± 0.044 |
| D22A | 0.05 ± 0.045 |
| V11H | 0.033 ± 0.054 |
| V11P | -0.795 ± 0.12 |
| V11C | -0.275 ± 0.11 |
| V11M | -0.008 ± 0.058 |
| V11S | -0.118 ± 0.058 |
| V11R | -0.113 ± 0.058 |
| V11I | 0.069 ± 0.061 |
| C32R | -1 ± 0.083 |
| C32K | -0.66 ± 0.14 |
| C32I | -0.979 ± 0.19 |
| C32A | -0.768 ± 0.11 |
| C32S | -1.05 ± 0.14 |
| C32P | -0.638 ± 0.14 |
| C32E | -0.264 ± 0.12 |
| P48D | 0.212 ± 0.11 |
| P48M | -0.389 ± 0.09 |
| P48E | 0.177 ± 0.11 |
| P48I | -0.312 ± 0.24 |
| P48K | -0.419 ± 0.14 |
| P48L | -0.564 ± 0.1 |

| Variant | abundance fitness |
| --- | --- |
| P48F | 0.31 ± 0.12 |
| E17K | 0.007 ± 0.068 |
| E17A | -0.063 ± 0.043 |
| E17V | -0.228 ± 0.05 |
| E17M | -0.13 ± 0.059 |
| E17R | -0.187 ± 0.053 |
| E17S | -0.21 ± 0.045 |
| E17I | -0.102 ± 0.045 |
| E17P | -0.239 ± 0.052 |
| L30G | 0.002 ± 0.048 |
| L30E | -0.142 ± 0.078 |
| L30A | 0.072 ± 0.061 |
| L30N | -0.04 ± 0.044 |
| L30W | -0.201 ± 0.049 |
| M6Y | -0.401 ± 0.099 |
| M6N | 0.135 ± 0.094 |
| M6I | 0.012 ± 0.13 |
| G15H | -0.159 ± 0.11 |
| G15I | -0.112 ± 0.14 |
| G15K | 0.191 ± 0.097 |
| G15T | 0.036 ± 0.062 |
| G15E | -0.224 ± 0.13 |
| Y28H | -0.376 ± 0.12 |
| Y28C | -0.653 ± 0.095 |

| Variant | abundance fitness |
| --- | --- |
| Y28G | -0.536 ± 0.059 |
| Y28D | -0.405 ± 0.076 |
| Y28A | -0.466 ± 0.066 |
| Y28W | -0.188 ± 0.047 |
| Y28R | -0.527 ± 0.053 |
| C52K | -0.198 ± 0.14 |
| C52D | 0.262 ± 0.085 |
| C52P | 0.11 ± 0.053 |
| C52G | 0.029 ± 0.055 |
| C52M | 0.021 ± 0.053 |
| C52F | -0.141 ± 0.098 |
| T51H | -0.228 ± 0.13 |
| T51P | -0.078 ± 0.089 |
| T51C | 0.086 ± 0.083 |
| T51A | -0.061 ± 0.046 |
| T51D | 0.202 ± 0.099 |
| T51W | -0.346 ± 0.075 |
| T51R | -0.035 ± 0.053 |
| T51Q | 0.116 ± 0.092 |
| T51V | -0.084 ± 0.064 |
| C12L | -0.971 ± 0.079 |
| C12S | -0.947 ± 0.07 |
| C12P | -0.699 ± 0.1 |
| C12M | -0.923 ± 0.071 |

| Variant | abundance fitness |
| --- | --- |
| P36H | -0.211 ± 0.15 |
| P36M | -0.026 ± 0.082 |
| P36G | -0.169 ± 0.06 |
| L37S | 0.023 ± 0.074 |
| L37E | -0.041 ± 0.099 |
| L37C | -0.299 ± 0.098 |
| L37V | -0.135 ± 0.079 |
| L37T | -0.005 ± 0.071 |
| L37P | -0.113 ± 0.077 |
| L37A | 0.031 ± 0.043 |
| C9Q | -0.771 ± 0.087 |
| C9H | -1.5 ± 0.4 |
| C9L | -0.861 ± 0.078 |
| C9P | -0.94 ± 0.13 |
| C9S | -0.807 ± 0.072 |
| C9G | -0.687 ± 0.068 |
| C9R | -0.629 ± 0.062 |
| W45V | -0.579 ± 0.046 |
| W45R | -0.449 ± 0.043 |
| W45I | -0.667 ± 0.16 |
| W45G | -0.457 ± 0.045 |
| W45A | -0.45 ± 0.058 |
| W45Q | -0.506 ± 0.061 |
